In publication PMC6742747, “A Unique Homo-Hexameric Structure of 2-Aminomuconate Deaminase in the Bacterium Pseudomonas species AP–3” (Frontiers in Microbiology, 2019):
Substitutions are numbered along the chain they refer to. In names and notes the source's numbering stands.

B1: 2-aminomuconate deaminase (AmnE) from Pseudomonas sp. AP-3, wild type (enzyme, UniProt Q9KWS2 1-142, looked up)
chain: MVSKADNSAKLVEGKAKPMGSFPHVKRAGDFLFVSGTSSRRPDNTFVGAEPDDTGRPRPNIELQTREVISNIRDILQSVGADLGDVVEVCSYLVNMNDFAAYNKVYAEFFDATGPARTTVAVHQLPHPQLVIEIKVVAYKPL
notes: 2-aminomuconate deaminase AmnE, Pseudomonas sp; AP-3; protomer of 142 residues; Hexamer made of two trimers, by crystal structure, SEC and cross-linking; the database entry may name the gene amnD; After thrombin cleavage a few vector residues may remain at the N-terminus (surmised); also called wild-type AmnE; source: E. coli BL21 (DE3) pLysS, purified (Ni-NTA, Resource Q, Superdex 75); not …
B2: AmnE R56A (enzyme, Pseudomonas sp. AP-3, UniProt Q9KWS2 1-142, looked up)
chain: B1 chain with R56A
notes: 2-aminomuconate deaminase AmnE, Pseudomonas sp; AP-3, as m1 with R56A; The purification, including tag cleavage, is described once for the wild type and the mutants together; Trimer by SEC; also called single mutant of AmnE R56A; source: E. coli BL21 (DE3) pLysS, purified (Ni-NTA, Resource Q, Superdex 75); not shown: His6, N-terminal, cleaved
B3: AmnE P126A (enzyme, Pseudomonas sp. AP-3, UniProt Q9KWS2 1-142, looked up)
chain: B1 chain with P126A
notes: 2-aminomuconate deaminase AmnE, Pseudomonas sp; AP-3, as m1 with P126A; The purification, including tag cleavage, is described once for the wild type and the mutants together; Hexamer by SEC; also called mutant AmnE P126A; source: E. coli BL21 (DE3) pLysS, purified (Ni-NTA, Resource Q, Superdex 75); not shown: His6, N-terminal, cleaved
B4: AmnEΔ49–59 (enzyme, Pseudomonas sp. AP-3, UniProt Q9KWS2 1-142, looked up)
chain: MVSKADNSAKLVEGKAKPMGSFPHVKRAGDFLFVSGTSSRRPDNTFVGNIELQTREVISNIRDILQSVGADLGDVVEVCSYLVNMNDFAAYNKVYAEFFDATGPARTTVAVHQLPHPQLVIEIKVVAYKPL
notes: 2-aminomuconate deaminase AmnE, Pseudomonas sp; AP-3, as m1 with residues Ala49-Pro59 of loop Lp2 deleted; The purification, including tag cleavage, is described once for the wild type and the mutants together; Trimer by SEC; also called AmnEΔLp2 (residues Ala49–Pro59); truncated mutant AmnEΔ49–59; source: E. coli BL21 (DE3) pLysS, purified (Ni-NTA, Resource Q, Superdex 75); not shown: His6, …

Molecular target: the molecule itself
Assay: SEC; analytic Superdex 200 10/300 GL; 1 mg/ml; 50 mM HEPES, 150 mM NaCl, 1 mM DTT, 1 mM EDTA, 5% glycerol, pH 8.0; 0.3 ml/min, 16°C; mass calculated from the elution volume

Protein	stoichiometry N
B1	6
B2	3
B3	6
B4	3
